From paper PMC10397247

T1: 4H754-bN
T1 chain: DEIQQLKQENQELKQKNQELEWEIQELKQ

T2: 4H2667-bN
T2 chain: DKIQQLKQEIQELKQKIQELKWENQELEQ

T3: 4H3782-bN
T3 chain: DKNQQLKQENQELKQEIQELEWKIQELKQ

T4: 4H1845-bN
T4 chain: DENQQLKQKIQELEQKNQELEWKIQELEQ

T5: 4H3354-bN
T5 chain: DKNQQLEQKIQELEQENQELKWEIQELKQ

T6: 4H3427-bN
T6 chain: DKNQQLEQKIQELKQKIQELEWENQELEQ

T7: 4H2729-bN
T7 chain: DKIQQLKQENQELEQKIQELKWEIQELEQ

T8: 4H918-bN
T8 chain: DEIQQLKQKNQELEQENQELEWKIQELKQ

T9: 4H331-bN
T9 chain: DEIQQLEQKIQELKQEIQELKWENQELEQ

T10: 4H2576-bN
T10 chain: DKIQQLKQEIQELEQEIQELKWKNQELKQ

T11: 4H2697-bN
T11 chain: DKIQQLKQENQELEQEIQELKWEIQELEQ

T12: 4H687-bN
T12 chain: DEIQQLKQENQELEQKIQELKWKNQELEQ

T13: 4H2618-bN
T13 chain: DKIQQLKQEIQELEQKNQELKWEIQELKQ

T14: 4H3855-bN
T14 chain: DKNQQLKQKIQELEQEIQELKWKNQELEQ

T15: 4H2442-bN
T15 chain: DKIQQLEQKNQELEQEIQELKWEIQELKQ

T16: 4H568-bN
T16 chain: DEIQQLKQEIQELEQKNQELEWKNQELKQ

T17: 4H967-bN
T17 chain: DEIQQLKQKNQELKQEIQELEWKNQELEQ

T18: 4H3185-bN
T18 chain: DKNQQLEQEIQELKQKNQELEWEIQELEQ

T19: 4H607-bN
T19 chain: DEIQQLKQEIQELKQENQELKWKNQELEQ

T20: 4H454-bN
T20 chain: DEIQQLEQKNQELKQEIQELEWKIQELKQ

T21: 4H908-bN
T21 chain: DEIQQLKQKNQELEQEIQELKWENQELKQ

T22: 4H72-bN
T22 chain: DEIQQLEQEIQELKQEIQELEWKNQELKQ

T23: 4H4001-bN
T23 chain: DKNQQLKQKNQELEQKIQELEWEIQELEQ

T24: 4H1828-bN
T24 chain: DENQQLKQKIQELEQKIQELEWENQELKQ

T25: 4H338-bN
T25 chain: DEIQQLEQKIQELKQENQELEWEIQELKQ

T26: 4H883-bN
T26 chain: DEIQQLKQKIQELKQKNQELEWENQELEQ

T27: 4H3112-bN
T27 chain: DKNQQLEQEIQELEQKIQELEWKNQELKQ

T28: 4H797-bN
T28 chain: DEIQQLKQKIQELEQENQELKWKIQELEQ

T29: 4H953-bN
T29 chain: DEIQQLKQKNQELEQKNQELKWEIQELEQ

T30: 4H717-bN
T30 chain: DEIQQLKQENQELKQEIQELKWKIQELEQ

T31: 4H462-bN
T31 chain: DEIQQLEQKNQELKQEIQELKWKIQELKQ

T32: 4H3606-bN
T32 chain: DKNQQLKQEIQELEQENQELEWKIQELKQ

T33: 4H1446-bN
T33 chain: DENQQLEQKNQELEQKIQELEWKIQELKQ

T34: 4H370-bN
T34 chain: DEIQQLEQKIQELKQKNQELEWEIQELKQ

T35: 4H3189-bN
T35 chain: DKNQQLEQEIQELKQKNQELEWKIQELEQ

T36: 4H3843-bN
T36 chain: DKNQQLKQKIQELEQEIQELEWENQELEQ

T37: 4H2610-bN
T37 chain: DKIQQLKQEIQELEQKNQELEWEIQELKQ


Columns and labels:
Assay in all cases: two-hybrid library CCNG1;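 further: natural log of median RNA to DNA barcode read ratio; higher means stronger binding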
4H754-bN = biological target: T1, 4H754-bN
4H2667-bN = biological target: T2, 4H2667-bN
4H3782-bN = biological target: T3, 4H3782-bN
4H1845-bN = biological target: T4, 4H1845-bN
4H3354-bN = biological target: T5, 4H3354-bN
4H3427-bN = biological target: T6, 4H3427-bN
4H2729-bN = biological target: T7, 4H2729-bN
4H918-bN = biological target: T8, 4H918-bN
4H331-bN = biological target: T9, 4H331-bN
4H2576-bN = biological target: T10, 4H2576-bN
4H2697-bN = biological target: T11, 4H2697-bN
4H687-bN = biological target: T12, 4H687-bN
4H2618-bN = biological target: T13, 4H2618-bN
4H3855-bN = biological target: T14, 4H3855-bN
4H2442-bN = biological target: T15, 4H2442-bN
4H568-bN = biological target: T16, 4H568-bN
4H967-bN = biological target: T17, 4H967-bN
4H3185-bN = biological target: T18, 4H3185-bN
4H607-bN = biological target: T19, 4H607-bN
4H454-bN = biological target: T20, 4H454-bN
4H908-bN = biological target: T21, 4H908-bN
4H72-bN = biological target: T22, 4H72-bN
4H4001-bN = biological target: T23, 4H4001-bN
4H1828-bN = biological target: T24, 4H1828-bN
4H338-bN = biological target: T25, 4H338-bN
4H883-bN = biological target: T26, 4H883-bN
4H3112-bN = biological target: T27, 4H3112-bN
4H797-bN = biological target: T28, 4H797-bN
4H953-bN = biological target: T29, 4H953-bN
4H717-bN = biological target: T30, 4H717-bN
4H462-bN = biological target: T31, 4H462-bN
4H3606-bN = biological target: T32, 4H3606-bN
4H1446-bN = biological target: T33, 4H1446-bN
4H370-bN = biological target: T34, 4H370-bN
4H3189-bN = biological target: T35, 4H3189-bN
4H3843-bN = biological target: T36, 4H3843-bN
4H2610-bN = biological target: T37, 4H2610-bN

interaction score (4H754-bN)	interaction score (4H2667-bN)	interaction score (4H3782-bN)	interaction score (4H1845-bN)	interaction score (4H3354-bN)	interaction score (4H3427-bN)	interaction score (4H2729-bN)	interaction score (4H918-bN)	interaction score (4H331-bN)	interaction score (4H2576-bN)	interaction score (4H2697-bN)	interaction score (4H687-bN)	interaction score (4H2618-bN)	interaction score (4H3855-bN)	interaction score (4H2442-bN)	interaction score (4H568-bN)	interaction score (4H967-bN)	interaction score (4H3185-bN)	interaction score (4H607-bN)	interaction score (4H454-bN)	further results	Binder
-2.15	1.18	0.26	-0.541	-1.74	-0.728	-0.165	-1.16	0.0332	1.52	-0.202	-0.773	0.00935	0.0633	-0.746	-0.67	-0.704	-0.135	-0.0859	-1.22	interaction score (4H908-bN): -1.28; interaction score (4H72-bN): 0.18; interaction score (4H4001-bN): -0.709; interaction score (4H1828-bN): 1.19; interaction score (4H338-bN): -0.738; interaction score (4H883-bN): -0.284; interaction score (4H3112-bN): 0.443; interaction score (4H797-bN): -1.07; interaction score (4H953-bN): -0.334; interaction score (4H717-bN): -0.318	DENQQLKQKIQELEQKIQELEWENQELKQ [4H1828-bN]
-0.286	0.641	-0.169	-1.65	-0.558	0.852	0.529	0.759	1.22	1.07	-0.277	-0.229	-0.442	0.333	0.215	-0.0813	-1.04	0.1	0.502	0.124	interaction score (4H462-bN): -1.74; interaction score (4H3606-bN): -0.294; interaction score (4H1446-bN): 0.223; interaction score (4H908-bN): -0.254; interaction score (4H72-bN): 0.548; interaction score (4H4001-bN): 1.11; interaction score (4H370-bN): -0.536; interaction score (4H3189-bN): 0.67; interaction score (4H1828-bN): 0.29; interaction score (4H3843-bN): 1.05; interaction score (4H338-bN): -0.426; interaction score (4H883-bN): -0.0261; interaction score (4H3112-bN): -0.24; interaction score (4H797-bN): -0.329; interaction score (4H953-bN): -0.0145; interaction score (4H717-bN): -0.982; interaction score (4H2610-bN): 0.732	DENQQLEQKNQELEQKIQELEWKIQELKQ [4H1446-bN]
